Reference: patent US20090023895A1

target: HLA-A2 molecule (a product of the HLA-A*0201 gene) (human), A*02:0

In order of rising -log Kd (Binding Experiment Data):
1. YLEENPSAG (modifications not checked) [SEQ ID NO: 26 peptide]  4.9 -log Kd
2. YLEEHPSAG (modifications not checked) [SEQ ID NO: 21 peptide]  5.08 -log Kd
3. WMACHSAAF (modifications not checked) [SEQ ID NO: 30 peptide]  5.79 -log Kd
4. IFLARSALI (modifications not checked) [SEQ ID NO: 35 peptide]  5.94 -log Kd
